Measured values as given in article doi:10.1101/2025.03.28.645892 (2025).

Assays:
[1] = biological target: T1, Arabidopsis thaliana UFD1B (Arabidopsis thaliana, UniProt Q9SJV0 1-340); test: ITC; AMPPNP; AtCDC48A saturated with AtNPL4
T1 chain: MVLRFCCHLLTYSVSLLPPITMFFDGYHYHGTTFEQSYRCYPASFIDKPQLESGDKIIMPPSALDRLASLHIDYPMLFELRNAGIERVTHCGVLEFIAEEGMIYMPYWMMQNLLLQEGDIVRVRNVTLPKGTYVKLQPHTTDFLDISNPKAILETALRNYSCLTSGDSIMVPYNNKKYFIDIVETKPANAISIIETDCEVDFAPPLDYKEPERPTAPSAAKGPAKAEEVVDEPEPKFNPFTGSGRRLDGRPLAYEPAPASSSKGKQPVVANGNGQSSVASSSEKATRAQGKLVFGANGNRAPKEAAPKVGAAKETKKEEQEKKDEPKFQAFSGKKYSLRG

[2] = biological target: T1, Arabidopsis thaliana UFD1B; test: MST; pH 6.5; AMPPNP
[3] = biological target: T1, Arabidopsis thaliana UFD1B; test: MST; pH 7.5; AMPPNP
AtNPL4B UBXL domain = biological target: T2, AtNPL4B UBXL domain (Arabidopsis thaliana, UniProt Q9LYC2 1-89); test: ITC; AMPPNP
T2 chain: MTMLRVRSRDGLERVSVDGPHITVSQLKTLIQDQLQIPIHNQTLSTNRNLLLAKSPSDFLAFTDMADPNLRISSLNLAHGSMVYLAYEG

AtNPL4B F105A = biological target: T3, AtNPL4B F105A (Arabidopsis thaliana, UniProt Q9LYC2 1-413, F105A); test: ITC; AMPPNP
T3 sequence: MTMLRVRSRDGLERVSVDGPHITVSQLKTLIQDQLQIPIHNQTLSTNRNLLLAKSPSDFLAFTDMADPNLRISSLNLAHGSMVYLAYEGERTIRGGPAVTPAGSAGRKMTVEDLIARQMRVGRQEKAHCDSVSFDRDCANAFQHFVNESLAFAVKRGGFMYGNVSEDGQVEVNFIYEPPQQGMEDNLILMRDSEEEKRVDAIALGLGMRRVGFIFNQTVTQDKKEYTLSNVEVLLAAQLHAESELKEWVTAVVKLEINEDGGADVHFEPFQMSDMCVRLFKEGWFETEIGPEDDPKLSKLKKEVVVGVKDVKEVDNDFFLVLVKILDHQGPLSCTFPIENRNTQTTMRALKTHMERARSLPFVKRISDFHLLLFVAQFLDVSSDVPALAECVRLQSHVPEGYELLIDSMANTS

[4] = biological target: T1, Arabidopsis thaliana UFD1B; test: MST; pH 7.5
[5] = biological target: T1, Arabidopsis thaliana UFD1B; test: MST; pH 6.5

B1: AtCDC48A saturated with AtNPL4 (complex)
chain 1: MSTPAESSDSKSKKDFSTAILERKKSPNRLVVDEAINDDNSVVSLHPATMEKLQLFRGDTILIKGKKRKDTVCIALADETCEEPKIRMNKVVRSNLRVRLGDVISVHQCPDVKYGKRVHILPVDDTVEGVTGNLFDAYLKPYFLEAYRPVRKGDLFLVRGGMRSVEFKVIETDPAEYCVVAPDTEIFCEGEPVKREDEERLDDVGYDDVGGVRKQMAQIRELVELPLRHPQLFKSIGVKPPKGILLYGPPGSGKTLIARAVANETGAFFFCINGPEIMSKLAGESESNLRKAFEEAEKNAPSIIFIDEIDSIAPKREKTNGEVERRIVSQLLTLMDGLKSRAHVIVMGATNRPNSIDPALRRFGRFDREIDIGVPDEIGRLEVLRIHTKNMKLAEDVDLERISKDTHGYVGADLAALCTEAALQCIREKMDVIDLEDDSIDAEILNSMAVTNEHFHTALGNSNPSALRETVVEVPNVSWNDIGGLENVKRELQETVQYPVEHPEKFEKFGMSPSKGVLFYGPPGCGKTLLAKAIANECQANFISVKGPELLTMWFGESEANVREIFDKARQSAPCVLFFDELDSIATQRGGGSGGDGGGAADRVLNQLLTEMDGMNAKKTVFIIGATNRPDIIDSALLRPGRLDQLIYIPLPDEDSRLNIFKAALRKSPIAKDVDIGALAKYTQGFSGADITEICQRACKYAIRENIEKDIEKEKRRSENPEAMEEDGVDEVSEIKAAHFEESMKYARRSVSDADIRKYQAFAQTLQQSRGFGSEFRFENSAGSGATTGVADPFATSAAAAGDDDDLYN
chain 2: MMMLRIRSRDGLERVTAEGAHITVSQLKTLIADQLQIPLHKQTLSTNRDLLLAKTPADLLAFTDLTDPNLPLSSLNLGHGSMLYLAYDGERSIPGAPPVTPAGSFGRKMTVDDLIARQMRVTRQETSHCDSVSFDRDAANAFQHYVNESLAFAVKRGGFMYGTVTEEGQVEVDFIYEPPQQGTEANLILMRDADEEKRVDAIAMGLGMRRVGFIFNQTVVQDKTEYTLSNAEVLQAAELHAESELKEWVTAVVKLEVNEDGGADVHFEAFQMSDMCIRLFKEEWFETEIMPDDDPKLSKMKKEVVVGVKDLKEVDNDFFLVLVRILDHQGPLSSTFPIENRSSRATMRALKTHLDRAKSLPLVKKMSDFHLLLFVAQFLDVSSDVPALAECVRLQSPVPEGYALLIESMANTC
modifications: Alexa-488 dye label in the MST experiments only
- Kd [1]: 3.8 µM
- Kd [2]: 2.9 µM
- Kd [3]: 4.6 µM

B2: Arabidopsis thaliana CDC48A (enzyme)
chain: B1 chain 1
- Kd (AtNPL4B UBXL domain): 3.2 µM
- Kd (AtNPL4B F105A): 4.6 µM

B3: Arabidopsis thaliana NPL4 (natural protein)
chain: B1 chain 2
modifications: Alexa-488 dye label in the MST experiments only
- Kd [4]: 256 µM
- Kd [5]: 75.4 µM
